Results published in the supplement of paper PMC11246515.
± gives the standard deviation of the averaged measurements.

Assay: total protein half-life in vivo (active degradation + dilution); higher = more stable protein
[1] = E. coli NCM3722 delta-clpP delta-lon delta-hslV, growth: N-lim chemostat, doubling time 6 h
[2] = E. coli NCM3722 delta-clpP, growth: N-lim chemostat, doubling time 6 h
[3] = E. coli NCM3722 delta-hslV, growth: N-lim chemostat, doubling time 6 h
[4] = E. coli NCM3722 delta-lon, growth: N-lim chemostat, doubling time 6 h
[5] = E. coli NCM3722 delta-smpB, growth: N-lim chemostat, doubling time 6 h
[6] = wild type E. coli NCM3722, growth: C-lim chemostat, doubling time 3 h
[7] = wild type E. coli NCM3722, growth: C-lim chemostat, doubling time 6 h
[8] = wild type E. coli NCM3722, growth: C-lim chemostat, doubling time 12 h
[9] = wild type E. coli NCM3722, growth: N-lim chemostat, doubling time 6 h
[10] = wild type E. coli NCM3722, growth: N-lim chemostat, doubling time 12 h
[11] = wild type E. coli NCM3722, growth: P-lim chemostat, doubling time 6 h
[12] = wild type E. coli NCM3722, growth: P-lim chemostat, doubling time 12 h

Row | Sequence | total protein half-life in vivo [1] [h] | total protein half-life in vivo [2] [h] | total protein half-life in vivo [3] [h] | total protein half-life in vivo [4] [h] | total protein half-life in vivo [5] [h] | total protein half-life in vivo [6] [h] | total protein half-life in vivo [7] [h] | total protein half-life in vivo [8] [h] | total protein half-life in vivo [9] [h] | total protein half-life in vivo [10] [h] | total protein half-life in vivo [11] [h] | total protein half-life in vivo [12] [h]
1 | MKVGFIGLGIMGKPMSKNLLKAGYSLVVADRNPEAIADVIAAGAETASTAKAIAEQCDVIITMLPNSPHVKEVALGENGIIEGAKPGTVLIDMSSIAPLASREISEALKAKGIDMLDAPVSGGEPKAIDGTLSVMVGGDKAIFDKYYDLMKAMAGSVVHTGEIGAGNVTKLANQVIVALNIAAMSEALTLATKAGVNPDLVYQAIRGGLAGSTVLDAKAPMVMDRNFKPGFRIDLHIKDLANALDTSHGVGAQLPLTAAVMEMMQALRADGLGTADHSALACYYEKLAKVEVTR [P0ABQ2] | 3.86 ± 0.51 | 3.02 ± 0.079 | 3.5 ± 0.65 | 3.57 ± 0.23 | 2.9 ± 0.15 | 2.9 ± 0.065 | 5.47 ± 0.28 | 9.56 ± 1 | 3.13 ± 0.46 | 4.13 ± 0.28 | 5.31 ± 0.075 | 10.3 ± 0.15
2 | MKVKVLSLLVPALLVAGAANAAEVYNKDGNKLDLYGKVDGLHYFSDNKDVDGDQTYMRLGFKGETQVTDQLTGYGQWEYQIQGNSAENENNSWTRVAFAGLKFQDVGSFDYGRNYGVVYDVTSWTDVLPEFGGDTYGSDNFMQQRGNGFATYRNTDFFGLVDGLNFAVQYQGKNGNPSGEGFTSGVTNNGRDALRQNGDGVGGSITYDYEGFGIGGAISSSKRTDAQNTAAYIGNGDRAETYTGGLKYDANNIYLAAQYTQTYNATRVGSLGWANKAQNFEAVAQYQFDFGLRPSLAYLQSKGKNLGRGYDDEDILKYVDVGATYYFNKNMSTYVDYKINLLDDNQFTRDAGINTDNIVALGLVYQF | 7.5928 ± 0.0042 | 6.32 ± 1.1 | 6.59 ± 0.66 | 7.2 ± 0.57 | 6.24 ± 0.51 | 3.37 ± 0.1 | 6.64 ± 0.99 | 11.6 ± 2 | 5.94 ± 0.54 | 12.4 ± 1.4 | 6.7 ± 0.53 | 13.9 ± 2.6
3 | MKVLVTGATSGLGRNAVEFLCQKGISVRATGRNEAMGKLLEKMGAEFVPADLTELVSSQAKVMLAGIDTLWHCSSFTSPWGTQQAFDLANVRATRRLGEWAVAWGVRNFIHISSPSLYFDYHHHRDIKEDFRPHRFANEFARSKAASEEVINMLSQANPQTRFTILRPQSLFGPHDKVFIPRLAHMMHHYGSILLPHGGSALVDMTYYENAVHAMWLASQEACDKLPSGRVYNITNGEHRTLRSIVQKLIDELNIDCRIRSVPYPMLDMIARSMERLGRKSAKEPPLTHYGVSKLNFDFTLDITRAQEELGYQPVITLDEGIEKTAAWLRDHGKLPR | 6.23 ± 0.075 | – | 6.37 ± 0.24 | 5.88 ± 0.54 | 5.48 ± 0.29 | 2.62 ± 0.47 | – | 9.95 ± 0.97 | 6.14 ± 0.16 | 12.6 ± 0.48 | 5.6 ± 0.61 | 9.9 ± 0.57
4 | MKYDTSELCDIYQEDVNVVEPLFSNFGGRASFGGQIITVKCFEDNGLLYDLLEQNGRGRVLVVDGGGSVRRALVDAELARLAVQNEWEGLVIYGAVRQVDDLEELDIGIQAMAAIPVGAAGEGIGESDVRVNFGGVTFFSGDHLYADNTGIILSEDPLDIE [P0A8R0] | 5.37 ± 0.18 | 5.11 ± 0.26 | 5.16 ± 0.12 | 4.57 ± 0.28 | 4.26 ± 0.1 | 3.25 ± 0.3 | 6.31 ± 1.1 | 13.4 ± 0.22 | 5.06 ± 0.22 | 8.11 ± 0.27 | 6.02 ± 0.41 | 12.7 ± 1.7
5 | MKYKHLILSLSLIMLGPLAHAEEIGSVDTVFKMIGPDHKIVVEAFDDPDVKNVTCYVSRAKTGGIKGGLGLAEDTSDAAISCQQVGPIELSDRIKNGKAQGEVVFKKRTSLVFKSLQVVRFYDAKRNALAYLAYSDKVVEGSPKNAISAVPVMPWRQ [P0AE91] | 5.76 ± 0.34 | – | 6.57 ± 0.31 | – | 6.01 ± 0.23 | 2.92 ± 0.29 | 5.9682 ± 0.0034 | 12.1 ± 2.7 | 6.39 ± 1.3 | 13.3 ± 0.76 | 6.41 ± 0.56 | –
6 | MKYQLTALEARVIGCLLEKQVTTPEQYPLSVNGVVTACNQKTNREPVMNLSESEVQEQLDNLVKRHYLRTVSGFGNRVTKYEQRFCNSEFGDLKLSAAEVALITTLLLRGAQTPGELRSRAARMYEFSDMAEVESTLEQLANREDGPFVVRLAREPGKRENRYMHLFSGEVEDQPAVTDMSNAVDGDLQARVEALEIEVAELKQRLDSLLAHLGD | – | 5.48 ± 0.32 | 6.03 ± 0.02 | 6.75 ± 0.25 | 5.16 ± 0.098 | 3.01 ± 0.35 | 6.003 ± 0.036 | 9.65 ± 0.61 | 4.69 ± 0.64 | 10.6 ± 0.71 | 5.38 ± 0.72 | 12.8 ± 1.3
7 | MKYRIALAVSLFALSAGSYATTLCQEKEQNILKEISYAEKHQNQNRIDGLNKALSEVRANCSDSQLRADHQKKIAKQKDEVAERQQDLAEAKQKGDADKIAKRERKLAEAQEELKKLEARDY | 3.72 ± 0.12 | 3.7 ± 0.11 | – | 5.2 ± 0.22 | 4.66 ± 0.41 | – | 5.88 | 7.58 ± 0.055 | 5.07 ± 1.1 | 9.61 ± 1.1 | 4.12 | 10.6
8 | MKYSLGPVLWYWPKETLEEFYQQAATSSADVIYLGEAVCSKRRATKVGDWLEMAKSLAGSGKQIVLSTLALVQASSELGELKRYVENGEFLIEASDLGVVNMCAERKLPFVAGHALNCYNAVTLKILLKQGMMRWCMPVELSRDWLVNLLNQCDELGIRNQFEVEVLSYGHLPLAYSARCFTARSEDRPKDECETCCIKYPNGRNVLSQENQQVFVLNGIQTMSGYVYNLGNELASMQGLVDVVRLSPQGTDTFAMLDAFRANENGAAPLPLTANSDCNGYWRRLAGLELQA | 3.35 | – | – | – | – | – | – | – | – | – | – | –
